Patent US20230218710A1 (COHBAR, published 2023)
Square brackets hold non-standard residues; d marks the D form. Primed or numbered codes have the meaning given here. Ends that are not written are not given here. PEG12″ = polyethylene glycol with 12 units (PEG-12)

T1: Apelin Receptor (APJ) stably overexpressed in CHO-K1 AGTRL1 Gi cells (UniProt P35414 1-380, limits assumed)
T1 sequence (looked up): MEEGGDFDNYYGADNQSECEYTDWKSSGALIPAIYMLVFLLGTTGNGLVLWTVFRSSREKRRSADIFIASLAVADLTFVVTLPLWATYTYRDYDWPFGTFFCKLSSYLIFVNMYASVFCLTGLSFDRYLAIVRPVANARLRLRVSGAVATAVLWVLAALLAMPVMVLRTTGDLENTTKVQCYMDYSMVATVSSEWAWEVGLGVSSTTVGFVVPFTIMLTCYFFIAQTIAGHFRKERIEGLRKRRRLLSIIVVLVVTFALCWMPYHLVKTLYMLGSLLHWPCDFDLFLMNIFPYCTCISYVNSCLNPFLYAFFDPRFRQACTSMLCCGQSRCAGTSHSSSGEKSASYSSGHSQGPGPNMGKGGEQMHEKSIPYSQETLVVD


Key:
[1] = molecular target: ProLink tagged human APJ (Apelin Receptor) in CHO-K1 AGTRL1 β-Arrestin cells (human, UniProt P35414 1-380); assay: cell-based or functional assay
[2] = molecular target: T1, Apelin Receptor (APJ) stably …; assay: cell-based or functional assay

Binder	β-Arrestin recruitment, Percent of Apelin-13 Control Activity (10 µM peptide) [1]	inhibition of forskolin-induced cAMP, Percent of Pyr-Apelin-13 Control Activity (10 µM peptide) [2]
RRMMGMVFQCLCG[dA]K(PEG12″) (cysteine pairing not given here) [SEQ ID NO: 21]	1%	34%
RRMMGMVFQSLEG[dA] [SEQ ID NO: 39]	0%	-13%
RREMVYQCLEG[dA] [SEQ ID NO: 26]	0%	29%
RRMMGMVFQSL [SEQ ID NO: 60]	0%	16%
RRMMGMVFQCLSG[dA] [SEQ ID NO: 16]	0%	–
RRLLGLVFQSLCG[dA] [SEQ ID NO: 33]	9%	27%
KRRMMGMVFQCLCGA ((PEG12) at the N-terminal K; C-terminal (dA) = D-alanine) [SEQ ID NO: 20]	1%	37%
RRMAYQCLEG[dA] [SEQ ID NO: 27]	-1%	9%
RRMVFQCLEG[dA] [SEQ ID NO: 23]	0%	-4%
RRXXGXVFQCLCGA ((Nle) = norleucine at positions 3, 4 and 6; C-terminal (dA) = D-alanine) [SEQ ID NO: 18]	1%	30%
RRMMGMVEQSLCG[dA] [SEQ ID NO: 38]	0%	12%
RMMGMVFQSL [SEQ ID NO: 53]	1%	6%
RRMMGMV [SEQ ID NO: 56]	0%	-2%
RRMMGMVYQCLEG[dA] [SEQ ID NO: 29]	0%	21%
RRMMGMVAQCLEG[dA] [SEQ ID NO: 30]	-1%	31%
RREMVYQCLCG[dA] (cysteine pairing not given here) [SEQ ID NO: 25]	-1%	3%
RRMEVYQCLEG[dA] [SEQ ID NO: 32]	0%	4%
RRMGYQCLEG[dA] [SEQ ID NO: 28]	-1%	3%

Binder	β-Arrestin recruitment, Percent of Apelin-13 Control Activity (10 µM peptide) [1]	inhibition of forskolin-induced cAMP, Percent of Pyr-Apelin-13 Control Activity (10 µM peptide) [2]
RRMEVYQCLCG[dA] (cysteine pairing not given here; also: places D-Ala at position 13) [SEQ ID NO: 31]	0%	2%
RRMMGMVYQCLCG[dA] (cysteine pairing not given here) [SEQ ID NO: 10]	3%	70%
RRMMGMVFQS [SEQ ID NO: 59]	0%	-2%
RRMMGMVF [SEQ ID NO: 57]	0%	-1%
RRMMGMVFQCLCG[dA] (cysteine pairing not given here) [SEQ ID NO: 8]	17%	64%
RXMMGMVFQSLCGA ((Aib) = aminoisobutyric acid at position 2; C-terminal (dA) = D-alanine) [SEQ ID NO: 34]	8%	61%
RXLLGLVFQSLCGA ((Aib) = aminoisobutyric acid at position 2; C-terminal (dA) = D-alanine) [SEQ ID NO: 35]	17%	8%
RRMVFQCLCG[dA] (cysteine pairing not given here) [SEQ ID NO: 19]	1%	27%
RMMGMVFQS [SEQ ID NO: 52]	0%	15%
Ac-RRMMGMVFQSLCG[dA] [SEQ ID NO: 61]	5%	1%
RRMMGMVFQSLCG[dA]-NH2 [SEQ ID NO: 62]	2%	27%
RRMMGM [SEQ ID NO: 55]	1%	-7%
Ac-RRMMGMVFQSLCG[dA]-NH2 [SEQ ID NO: 63]	9%	21%
RRMMGMVFQ [SEQ ID NO: 58]	0%	5%
RRMVYQCLCG[dA] (cysteine pairing not given here) [SEQ ID NO: 22]	0%	62%
RRMVYQCLEG[dA] [SEQ ID NO: 24]	-1%	16%
RMMGMVFQSLCG[dA] [SEQ ID NO: 54]	1%	20%
RRMMGMVFQSLSG[dA] [SEQ ID NO: 17]	10%	26%
